Results from patent US20060140858A1, “Drug pre-targeting by means of bi-specific antibodies and hapten constructs comprising a carrier peptide and the active agent(s)” (Immunomedics, Inc., priority 2002, published 2006).

Experiments:
[1] = Biodistribution of In-111 IMP 224 in BALB/c mice; assay type: in vivo; conditions: Urine, 1 hr
Description: Kits were reconstituted with 400 μCi In-111 in 0.5 mL water.

[2] = In-vivo stability and clearance of IMP 224; set-up: species or system mouse
Description: Kits were reconstituted with 4 mCi In-111 in 0.5 mL water. The In-111 kit was incubated at room temperature for 10 min and then diluted with 0.5 mL of the cold indium containing 0.5 M pH 7.2 acetate buffer.

[3] = Pretargeting: I-125 F6 × 734-F(ab′)2, 72 h later In-111-IMP-224, biodistribution; conditions: female, mouse, in vivo, total radioactivity; for tissue to tissue ratio at 1 h / tissue to tissue ratio at 4 h / tissue to tissue ratio at 24 h: 10 uCi, tumor-to-normal organ ratio; for tissue uptake at 1 h / tissue uptake at 4 h / tissue uptake at 24 h: % ID/g tissue
[4] = nude (Taconic NCRNU), Blood, 1 h
[5] = nude (Taconic NCRNU), Blood, 4 h
[6] = nude (Taconic NCRNU), Blood, 24 h
[7] = nude (Taconic NCRNU), Kidney, 1 h
[8] = nude (Taconic NCRNU), Kidney, 4 h
[9] = nude (Taconic NCRNU), Kidney, 24 h
[10] = nude (Taconic NCRNU), Large Int., 1 h
[11] = nude (Taconic NCRNU), Large Int., 4 h
[12] = nude (Taconic NCRNU), Large Int., 24 h
[13] = nude (Taconic NCRNU), Lungs, 1 h
[14] = nude (Taconic NCRNU), Lungs, 4 h
[15] = nude (Taconic NCRNU), Lungs, 24 h
[16] = nude (Taconic NCRNU), Muscle, 1 h
[17] = nude (Taconic NCRNU), Small Int., 4 h
[18] = nude (Taconic NCRNU), Small Int., 24 h
[19] = nude (Taconic NCRNU), Stomach, 1 h
[20] = nude (Taconic NCRNU), Stomach, 4 h
[21] = nude (Taconic NCRNU), Stomach, 24 h

For `COc1cccc2c1C(=O)c1c(O)c3c(c(O)c1C2=O)C[C@@](O)(C(CO)=NNc1ccc(C(=O)N[C@@H](CCCCNC(=O)CN(CCN(CCN(CC(=O)O)CC(=O)O)CC(=O)O)CC(=O)O)C(=O)N[C@@H](Cc2ccc(O)cc2)C(=O)N[C@@H](CCCCNC(=O)CN(CCN(CCN(CC(=O)O)CC(=O)O)CC(=O)O)CC(=O)O)C(N)=O)cc1)C[C@@H]3O[C@H]1C[C@H](N)[C@H](O)[C@H](C)O1` [IMP 224, Dox = N—NH—C6H4—CO-Lys(DTPA)-Tyr-Lys(DTPA)-NH2], the “% ID/g” value [1] was 1400 ± 421 % ID/g, the “Activity Recovered” value ([2]; Serum, 30 min, Animal #1) was 1.92 µCi and the “Activity Recovered” value ([2]; Serum, 30 min, Animal #2) was 3.64 µCi. For the same compound, the “Activity Recovered” value ([2]; Serum, 1 hr, Animal #1) was 1.21 µCi, the “Activity Recovered” value ([2]; Serum, 1 hr, Animal #2) was 1.27 µCi and the “Activity Recovered” value ([2]; Urine, 30 min, Animal #1) was 220 µCi. For the same compound, the “Activity Recovered” value ([2]; Urine, 30 min, Animal #2) was 133 µCi, the “Activity Recovered” value ([2]; Urine, 1 hr, Animal #1) was 41.1 µCi and the “Activity Recovered” value ([2]; Urine, 1 hr, Animal #2) was 273 µCi. The dose excreted ([2]; mouse, urine, 400 uCi, read-out: renal excretion) was roughly 100%, the “integrity of excreted peptide (reverse phase HPLC)” value ([2]; urine) was “excreted intact in the urine” and the “antibody binding of urine activity (size exclusion HPLC)” value ([2]; urine, 30 min and 1 hr) was “could still bind to the antibody”. The tissue to tissue ratio at 1 h ([3]; NCRNU nude, GW-39, 1 h) was 1, the tissue to tissue ratio at 4 h ([3]; NCRNU nude, GW-39, 4 h) was 1 and the tissue to tissue ratio at 24 h ([3]; NCRNU nude, GW-39, 24 h) was 1. It also gave a tissue to tissue ratio at 1 h ([3]; NCRNU nude, Liver, 1 h) of 24 ± 5.9, a tissue to tissue ratio at 4 h ([3]; NCRNU nude, Liver, 4 h) of 35.4 ± 6.9 and a tissue to tissue ratio at 24 h ([3]; NCRNU nude, Liver, 24 h) of 31.6 ± 5.8. For the same compound, the tissue to tissue ratio at 1 h ([3]; NCRNU nude, Tail, 1 h) was 9.4 ± 2.8, the tissue to tissue ratio at 4 h ([3]; NCRNU nude, Tail, 4 h) was 26.4 ± 5.2 and the tissue to tissue ratio at 24 h ([3]; NCRNU nude, Tail, 24 h) was 55.9 ± 5.7. For the same compound, the tissue to tissue ratio at 1 h ([3]; NCRNU nude, Urine, 1 h) was 0.3 ± 0.5, the tissue to tissue ratio at 4 h ([3]; NCRNU nude, Urine, 4 h) was 0.71 ± 0.6 and the tissue to tissue ratio at 24 h ([3]; NCRNU nude, Urine, 24 h) was 8.3 ± 1.3. For the same compound, the tissue to tissue ratio at 1 h [3, 4] was 6.1 ± 2.5, the tissue to tissue ratio at 4 h [3, 5] was 12.8 ± 2 and the tissue to tissue ratio at 24 h [3, 6] was 41.8 ± 6.3. For the same compound, the tissue to tissue ratio at 1 h [3, 7] was 3 ± 0.5, the tissue to tissue ratio at 4 h [3, 8] was 3.9 ± 0.5 and the tissue to tissue ratio at 24 h [3, 9] was 5 ± 0.5. The tissue to tissue ratio at 1 h [3, 10] was 87.1 ± 35, the tissue to tissue ratio at 4 h [3, 11] was 45.6 ± 19 and the tissue to tissue ratio at 24 h [3, 12] was 92.4 ± 38. For the same compound, the tissue to tissue ratio at 1 h [3, 13] was 13.4 ± 2.7, the tissue to tissue ratio at 4 h [3, 14] was 30.1 ± 4.9 and the tissue to tissue ratio at 24 h [3, 15] was 69 ± 9.4. The tissue to tissue ratio at 1 h [3, 16] was 38.6 ± 13, the tissue to tissue ratio at 4 h ([3]; nude (Taconic NCRNU), Muscle, 4 h) was 727 ± 797 and the tissue to tissue ratio at 24 h ([3]; nude (Taconic NCRNU), Muscle, 24 h) was 283 ± 46. It also gave a tissue to tissue ratio at 4 h [3, 17] of 51.6 ± 14, a tissue to tissue ratio at 24 h [3, 18] of 110 ± 13 and a tissue to tissue ratio at 1 h ([3]; nude (Taconic NCRNU), Spleen, 1 h) of 28.7 ± 8.7. For the same compound, the tissue to tissue ratio at 4 h ([3]; nude (Taconic NCRNU), Spleen, 4 h) was 44.7 ± 10, the tissue to tissue ratio at 24 h ([3]; nude (Taconic NCRNU), Spleen, 24 h) was 47 ± 2.2 and the tissue to tissue ratio at 1 h [3, 19] was 48.7 ± 37. For the same compound, the tissue to tissue ratio at 4 h [3, 20] was 128 ± 46, the tissue to tissue ratio at 24 h [3, 21] was 147 ± 39 and the tissue uptake at 1 h [3, 4] was 1.8 ± 0.6 %ID/g. The tissue uptake at 4 h [3, 5] was 0.9 ± 0.2 %ID/g, the tissue uptake at 24 h [3, 6] was 0.2 %ID/g and the tissue uptake at 1 h [3, 7] was 3.5 ± 0.6 %ID/g. For the same compound, the tissue uptake at 4 h [3, 8] was 2.8 ± 0.3 %ID/g, the tissue uptake at 24 h [3, 9] was 1.9 ± 0.2 %ID/g and the tissue uptake at 1 h [3, 10] was 0.1 %ID/g. It also gave a tissue uptake at 4 h [3, 11] of 0.3 ± 0.1 %ID/g, a tissue uptake at 24 h [3, 12] of 0.1 ± 0.1 %ID/g and a tissue uptake at 1 h [3, 13] of 0.8 ± 0.2 %ID/g. It also gave a tissue uptake at 4 h [3, 14] of 0.4 %ID/g, a tissue uptake at 24 h [3, 15] of 0.1 %ID/g and a tissue uptake at 1 h [3, 16] of 0.3 ± 0.2 %ID/g. For the same compound, the tissue uptake at 1 h ([3]; nude (Taconic NCRNU), Small Int., 1 h) was 0.5 ± 0.4 %ID/g, the tissue uptake at 4 h [3, 17] was 0.2 %ID/g and the tissue uptake at 24 h [3, 18] was 0.1 %ID/g. The tissue uptake at 1 h [3, 19] was 0.8 ± 1.3 %ID/g, the tissue uptake at 4 h [3, 20] was 0.1 %ID/g and the tissue uptake at 24 h [3, 21] was 0.1 %ID/g.
